Source: patent publication US20200199241A1 (Chugai, published 2020)

Molecular target: T1, soluble human FcRn complexed with β2-microglobulin (human, UniProt P61769 21-119, limits assumed)
T1 construct: also called hFcRn
Test: Biacore SPR, pH 7.0;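 note: test antibodies captured on a Protein L chip with human FcRn flowed over as analyte, KD obtained as the ratio of dissociation to association rate constants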

| Binder | Kd [nM] |
| --- | --- |
| IgG1-F972 (antibody, EU numbering; copies: 2 + 2) heavy: QVQLQESGPGLVKPSETLSLTCAVSGHSISHDHAWSWVRQPPGEGLEWIGFISYSGITNYNPSLQGRVTISRDNSKNTLYLQMNSLRAEDTAVYYCARSLARTTAMDYWGEGTLVTVSSASTKGPSVFPLAPSSKSTSGGTAALGCLVKDYFPEPVTVSWNSGALTSGVHTFPAVLQSSGLYSLSSVVTVPSSSLGTQTYICNVNHKPSNTKVDKKVEPKSCDKTHTCPPCPAPELLGGPSVFLFPPKPKDTLYIIRTPEVTCVVVDVSHEDPEVKFNWYVDGVEVHNAKTKPREEQYNSTYRVVSVLTVLHQDWLNGKEYKCKVSNKALPAPIEKTISKAKGQPREPQVYTLPPSRDELTKNQVSLTCLVKGFYPSDIAVEWESNGQPENNYKTTPPVLDSDGSFFLYSKLTVDKSRWQQGNVFSCSVMHEALHYHYTQKSLSLSP light: not shown | 260 |
| IgG1-F995 (antibody, EU numbering; copies: 2 + 2) heavy: QVQLQESGPGLVKPSETLSLTCAVSGHSISHDHAWSWVRQPPGEGLEWIGFISYSGITNYNPSLQGRVTISRDNSKNTLYLQMNSLRAEDTAVYYCARSLARTTAMDYWGEGTLVTVSSASTKGPSVFPLAPSSKSTSGGTAALGCLVKDYFPEPVTVSWNSGALTSGVHTFPAVLQSSGLYSLSSVVTVPSSSLGTQTYICNVNHKPSNTKVDKKVEPKSCDKTHTCPPCPAPELRGGDKVFLFPPKPKDTLYISRTPEVTCVVVDVSHEDPEVKFNWYVDGVEVHNAKTKPREEQYNSTYRVVSVLTVLHQDWLNGKEYKCKVSNKALPAPIEKTISKAKGQPREPQVYTLPPSRDELTKNQVSLTCLVKGFYPSDIAVEWESNGQPENNYKTTPPVLDSDGSFFLYSKLTVDKSRWQQGNVFSCSVMHEALHYHYTQKSLSLSP light: not shown | 290 |
| IgG1-F980 (antibody, EU numbering; copies: 2 + 2) heavy: QVQLQESGPGLVKPSETLSLTCAVSGHSISHDHAWSWVRQPPGEGLEWIGFISYSGITNYNPSLQGRVTISRDNSKNTLYLQMNSLRAEDTAVYYCARSLARTTAMDYWGEGTLVTVSSASTKGPSVFPLAPSSKSTSGGTAALGCLVKDYFPEPVTVSWNSGALTSGVHTFPAVLQSSGLYSLSSVVTVPSSSLGTQTYICNVNHKPSNTKVDKKVEPKSCDKTHTCPPCPAPELLGGPSVFLFPPKPKDTLYIVRTPEVTCVVVDVSHEDPEVKFNWYVDGVEVHNAKTKPREEQYNSTYRVVSVLTVLHQDWLNGKEYKCKVSNKALPAPIEKTISKAKGQPREPQVYTLPPSRDELTKNQVSLTCLVKGFYPSDIAVEWESNGQPENNYKTTPPVLDSDGSFFLYSKLTVDKSRWQQGNVFSCSVMHEALHYHYTQKSLSLSP light: not shown | 180 |
| IgG1-F988 (antibody, EU numbering; copies: 2 + 2) heavy: QVQLQESGPGLVKPSETLSLTCAVSGHSISHDHAWSWVRQPPGEGLEWIGFISYSGITNYNPSLQGRVTISRDNSKNTLYLQMNSLRAEDTAVYYCARSLARTTAMDYWGEGTLVTVSSASTKGPSVFPLAPSSKSTSGGTAALGCLVKDYFPEPVTVSWNSGALTSGVHTFPAVLQSSGLYSLSSVVTVPSSSLGTQTYICNVNHKPSNTKVDKKVEPKSCDKTHTCPPCPAPELLGGDSVFLFPPKPKDVLYISRTPEVTCVVVDVSHEDPEVKFNWYVDGVEVHEAKTKPREEQYNSTYRVVSVLTVLHQDWLNGKEYKCKVSNKALPAPIEKTISKAKGQPREPQVYTLPPSRDELTKNQVSLTCLVKGFYPSDIAVEWESNGQPENNYKTTPPVLDSDGSFFLYSKLTVDKSRWQQGNVFSCSVMHEALHYHVTQKSLSLSP light: not shown | 69 |
| IgG1-F996 (antibody, EU numbering; copies: 2 + 2) heavy: QVQLQESGPGLVKPSETLSLTCAVSGHSISHDHAWSWVRQPPGEGLEWIGFISYSGITNYNPSLQGRVTISRDNSKNTLYLQMNSLRAEDTAVYYCARSLARTTAMDYWGEGTLVTVSSASTKGPSVFPLAPSSKSTSGGTAALGCLVKDYFPEPVTVSWNSGALTSGVHTFPAVLQSSGLYSLSSVVTVPSSSLGTQTYICNVNHKPSNTKVDKKVEPKSCDKTHTCPPCPAPELRGGDKVFLFPPKPKDTLYISRTPEVTCVVVDVSHEDPEVKFNWYVDGVEVHNAKTKPREEQYNSTYRVVSVLTVLHQDWLNGKEYKCKVSNKALPAPIEKTISKAKGQPREPQVYTLPPSRDELTKNQVSLTCLVKGFYPSDIAVEWESNGQPENNYKTTPPVLDSDGSFFLYSKLTVDKSRWQQGNVFSCSVMHEALHYHVTQKSLSLSP light: not shown | 130 |
| IgG1-F978 (antibody, EU numbering; copies: 2 + 2) heavy: QVQLQESGPGLVKPSETLSLTCAVSGHSISHDHAWSWVRQPPGEGLEWIGFISYSGITNYNPSLQGRVTISRDNSKNTLYLQMNSLRAEDTAVYYCARSLARTTAMDYWGEGTLVTVSSASTKGPSVFPLAPSSKSTSGGTAALGCLVKDYFPEPVTVSWNSGALTSGVHTFPAVLQSSGLYSLSSVVTVPSSSLGTQTYICNVNHKPSNTKVDKKVEPKSCDKTHTCPPCPAPELLGGPSVFLFPPKPKDTLYIQRTPEVTCVVVDVSHEDPEVKFNWYVDGVEVHNAKTKPREEQYNSTYRVVSVLTVLHQDWLNGKEYKCKVSNKALPAPIEKTISKAKGQPREPQVYTLPPSRDELTKNQVSLTCLVKGFYPSDIAVEWESNGQPENNYKTTPPVLDSDGSFFLYSKLTVDKSRWQQGNVFSCSVMHEALHYHYTQKSLSLSP light: not shown | 1300 |
| IgG1-F994 (antibody, EU numbering; copies: 2 + 2) heavy: QVQLQESGPGLVKPSETLSLTCAVSGHSISHDHAWSWVRQPPGEGLEWIGFISYSGITNYNPSLQGRVTISRDNSKNTLYLQMNSLRAEDTAVYYCARSLARTTAMDYWGEGTLVTVSSASTKGPSVFPLAPSSKSTSGGTAALGCLVKDYFPEPVTVSWNSGALTSGVHTFPAVLQSSGLYSLSSVVTVPSSSLGTQTYICNVNHKPSNTKVDKKVEPKSCDKTHTCPPCPAPELLGGPSVFLFPPKPKDTLYISRTPEVTCVVVDVSHEDPEVKFNWYVDGVEVHNAKTKPREEQYNSTYRVVSVLTVLHQDWLNGKEYKCKVSGKALPAPIEKTISKAKGQPREPQVYTLPPSRDELTKNQVSLTCLVKGFYPSDIAVEWESNGQPENNYKTTPPVLDSDGSFFLYSKLTVDKSRWQQGNVFSCSVMHEALHYHYTQKSLSLSP light: not shown | 280 |

The next binders have a lower Kd than those just listed; values first:

| Kd [nM] | Binder |
| --- | --- |
| 51 | IgG1-F992 (antibody, EU numbering; copies: 2 + 2) heavy: QVQLQESGPGLVKPSETLSLTCAVSGHSISHDHAWSWVRQPPGEGLEWIGFISYSGITNYNPSLQGRVTISRDNSKNTLYLQMNSLRAEDTAVYYCARSLARTTAMDYWGEGTLVTVSSASTKGPSVFPLAPSSKSTSGGTAALGCLVKDYFPEPVTVSWNSGALTSGVHTFPAVLQSSGLYSLSSVVTVPSSSLGTQTYICNVNHKPSNTKVDKKVEPKSCDKTHTCPPCPAPELRGGPKVFLFPPKPKDTLYISRTPEVTCVVVDVSHEDPEVKFNWYVDGVEVHNAKTKPREEQYNSTYRVVSVLQVLHADWLNGKEYKCKVSNKALPAPIEKTISKAKGQPREPQVYTLPPSRDELTKNQVSLTCLVKGFYPSDIAVEWESNGQPENNYKTTPPVLDSDGSFFLYSKLTVDKSRWQQGNVFSCSVIHEALHYHVTQKSLSLSP light: not shown |
| 40 | IgG1-F987 (antibody, EU numbering; copies: 2 + 2) heavy: QVQLQESGPGLVKPSETLSLTCAVSGHSISHDHAWSWVRQPPGEGLEWIGFISYSGITNYNPSLQGRVTISRDNSKNTLYLQMNSLRAEDTAVYYCARSLARTTAMDYWGEGTLVTVSSASTKGPSVFPLAPSSKSTSGGTAALGCLVKDYFPEPVTVSWNSGALTSGVHTFPAVLQSSGLYSLSSVVTVPSSSLGTQTYICNVNHKPSNTKVDKKVEPKSCDKTHTCPPCPAPELLGGDSVFLFPPKPKDVLYISRTPEVTCVVVDVSHEDPEVKFNWYVDGVEVHNAKTKPREEQYNSTYRVVSVLQVLHADWLNGKEYKCKVSNKALPAPIEKTISKAKGQPREPQVYTLPPSRDELTKNQVSLTCLVKGFYPSDIAVEWESNGQPENNYKTTPPVLDSDGSFFLYSKLTVDKSRWQQGNVFSCSVMHEALHYHVTQKSLSLSP light: not shown |
| 38 | IgG1-F993 (antibody, EU numbering; copies: 2 + 2) heavy: QVQLQESGPGLVKPSETLSLTCAVSGHSISHDHAWSWVRQPPGEGLEWIGFISYSGITNYNPSLQGRVTISRDNSKNTLYLQMNSLRAEDTAVYYCARSLARTTAMDYWGEGTLVTVSSASTKGPSVFPLAPSSKSTSGGTAALGCLVKDYFPEPVTVSWNSGALTSGVHTFPAVLQSSGLYSLSSVVTVPSSSLGTQTYICNVNHKPSNTKVDKKVEPKSCDKTHTCPPCPAPELLGGPSVFLFPPKPKDTLYISRTPEVTCVVVDVSHEDPEVKFNWYVDGVEVHNAKTKPREEQYNSTYRVVSVLQVLHADWLNGKEYKCKVSNKALPAPIEKTISKAKGQPREPQVYTLPPSRDELTKNQVSLTCLVKGFYPSDIAVEWESNGQPENNYKTTPPVLDSDGSFFLYSKLTVDKSRWQQGNVFSCSVMHEALHYHVTQKSLSLSP light: not shown |
| 14 | IgG1-F989 (antibody, EU numbering; copies: 2 + 2) heavy: QVQLQESGPGLVKPSETLSLTCAVSGHSISHDHAWSWVRQPPGEGLEWIGFISYSGITNYNPSLQGRVTISRDNSKNTLYLQMNSLRAEDTAVYYCARSLARTTAMDYWGEGTLVTVSSASTKGPSVFPLAPSSKSTSGGTAALGCLVKDYFPEPVTVSWNSGALTSGVHTFPAVLQSSGLYSLSSVVTVPSSSLGTQTYICNVNHKPSNTKVDKKVEPKSCDKTHTCPPCPAPELRGGPKVFLFPPKPKDTLYISRTPEVTCVVVDVSHEDPEVKFNWYVDGVEVHNAKTKPREEQYNSTYRVVSVLTPLHQDWLNGKEYKCKVSNKALPAPIEKTISKAKGQPREPQVYTLPPSRDELTKNQVSLTCLVKGFYPSDIAVEWESNGQPENNYKTTPPVLDSDGSFFLYSKLTVDKSRWQQGNVFSCSVMHEALHYHVTQKSLSLSP light: not shown |
| 13 | IgG1-F991 (antibody, EU numbering; copies: 2 + 2) heavy: QVQLQESGPGLVKPSETLSLTCAVSGHSISHDHAWSWVRQPPGEGLEWIGFISYSGITNYNPSLQGRVTISRDNSKNTLYLQMNSLRAEDTAVYYCARSLARTTAMDYWGEGTLVTVSSASTKGPSVFPLAPSSKSTSGGTAALGCLVKDYFPEPVTVSWNSGALTSGVHTFPAVLQSSGLYSLSSVVTVPSSSLGTQTYICNVNHKPSNTKVDKKVEPKSCDKTHTCPPCPAPELRGGPKVFLFPPKPKDTLYISRTPEVTCVVVDVSHEDPEVKFNWYVDGVEVHEAKTKPREEQYNSTYRVVSVLQVLHADWLNGKEYKCKVSNKALPAPIEKTISKAKGQPREPQVYTLPPSRDELTKNQVSLTCLVKGFYPSDIAVEWESNGQPENNYKTTPPVLDSDGSFFLYSKLTVDKSRWQQGNVFSCSVMHEALHYHVTQKSLSLSP light: not shown |
| 9.4 | IgG1-F990 (antibody, EU numbering; copies: 2 + 2) heavy: QVQLQESGPGLVKPSETLSLTCAVSGHSISHDHAWSWVRQPPGEGLEWIGFISYSGITNYNPSLQGRVTISRDNSKNTLYLQMNSLRAEDTAVYYCARSLARTTAMDYWGEGTLVTVSSASTKGPSVFPLAPSSKSTSGGTAALGCLVKDYFPEPVTVSWNSGALTSGVHTFPAVLQSSGLYSLSSVVTVPSSSLGTQTYICNVNHKPSNTKVDKKVEPKSCDKTHTCPPCPAPELRGGPKVFLFPPKPKDTLYISRTPEVTCVVVDVSHEDPEVKFNWYVDGVEVHNAKTKPREEQYNSTYRVVSVLQPLHADWLNGKEYKCKVSNKALPAPIEKTISKAKGQPREPQVYTLPPSRDELTKNQVSLTCLVKGFYPSDIAVEWESNGQPENNYKTTPPVLDSDGSFFLYSKLTVDKSRWQQGNVFSCSVMHEALHYHVTQKSLSLSP light: not shown |
